Earlier results as cited in article PMC12528386.

Target: BamA (Escherichia coli) (UniProt P0A940)

Q: Which Kd does the source give for RcsF (from UniProt P69411) here?
A: 0.4 µM
